For test [1], the target named is mononucleosome with deletion of the histone H3 tail (human) (UniProt P04908). In words: AlphaScreen or HTRF.
Test [2] has as its target mononucleosome with deletion of the histone H4 tail (human) (UniProt P04908). In words: AlphaScreen or HTRF.

With “HIV-1 intasome assembled in the presence of LEDGF/p75 (from UniProt O75475 1-530) (complex)”, the decrease in the bridging signal against native nucleosomes in test [1] and in test [2] was 20% throughout.
